Data on seven molecules can be found in paper PMC3273815.

Usually stoichiometry N stands for a count of units in the complex or per binding partner.

The target in series [1] is BcMCM 501–1028 (helicase domain) (Bacillus cereus (integrated prophage)). Briefly: negative-stain electron microscopy.
For series [2], the target named is BcMCM Walker B mutant (D711A) (Bacillus cereus (integrated prophage)). Briefly: SEC. A general note: In gel filtration, larger molecules generally elute earlier.
Series [3] has as its target BcMCM presensor I β-hairpin mutant (R737A) (Bacillus cereus (integrated prophage)). Nature of the series: SEC.
Series [4] concerns the target T1, BcMCM wild type (Bacillus cereus (prophage), UniProt Q81EV1 1-1028).
T1 sequence: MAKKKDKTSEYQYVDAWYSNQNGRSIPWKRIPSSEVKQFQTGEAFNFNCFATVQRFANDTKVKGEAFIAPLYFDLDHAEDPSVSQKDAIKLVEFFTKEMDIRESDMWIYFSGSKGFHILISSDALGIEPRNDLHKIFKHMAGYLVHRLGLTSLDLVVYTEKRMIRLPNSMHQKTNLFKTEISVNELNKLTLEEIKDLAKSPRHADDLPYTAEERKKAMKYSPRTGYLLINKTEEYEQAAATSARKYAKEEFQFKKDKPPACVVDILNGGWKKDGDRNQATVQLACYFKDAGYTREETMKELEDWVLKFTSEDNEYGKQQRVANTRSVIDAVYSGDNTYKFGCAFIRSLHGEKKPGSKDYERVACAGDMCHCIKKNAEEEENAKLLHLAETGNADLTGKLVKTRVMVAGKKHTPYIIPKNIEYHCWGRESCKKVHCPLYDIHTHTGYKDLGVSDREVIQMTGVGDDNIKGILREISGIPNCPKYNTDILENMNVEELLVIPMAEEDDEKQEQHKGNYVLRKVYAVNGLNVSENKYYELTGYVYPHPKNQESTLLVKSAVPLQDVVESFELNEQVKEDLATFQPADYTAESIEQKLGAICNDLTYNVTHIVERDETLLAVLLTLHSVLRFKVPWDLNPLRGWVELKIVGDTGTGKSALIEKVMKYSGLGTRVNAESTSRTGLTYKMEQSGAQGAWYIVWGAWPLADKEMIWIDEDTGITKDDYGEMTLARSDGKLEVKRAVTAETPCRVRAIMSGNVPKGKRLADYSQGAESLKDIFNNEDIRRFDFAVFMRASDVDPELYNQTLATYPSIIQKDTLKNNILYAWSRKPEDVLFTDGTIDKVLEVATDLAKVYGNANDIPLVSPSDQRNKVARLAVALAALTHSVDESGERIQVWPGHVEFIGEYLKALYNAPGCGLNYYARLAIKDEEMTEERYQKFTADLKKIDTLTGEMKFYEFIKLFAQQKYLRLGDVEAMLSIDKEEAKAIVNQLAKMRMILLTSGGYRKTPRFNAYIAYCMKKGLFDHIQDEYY
Nature of the series: EMSA. A general note: In EMSA bound probe runs differently from free probe, usually more slowly.

Series [5] addresses T1, BcMCM wild type. Nature of the series: pull-down.

For “BcMCM 501–1028 (helicase domain) (domain or fragment)”, the stoichiometry N in series [1] was found to be 6.
In series [2], BcMCM Walker B mutant (D711A) (enzyme) had a stoichiometry N of 6.
Molecule “BcMCM presensor I β-hairpin mutant (R737A) (enzyme)” gave a stoichiometry N in series [3] of 6.

B1: bubble (dsDNA)
DNA 1: ACTGGCCGTCGTTTTACAACGTCGTGACTGGGAAAACCCTGGCGTTACCCAACTTAATCG
DNA 2: CGATTAAGTTGGGTAACGGGTCCCAAAAGGGTCAGTGCTGCATGTAAAACGACGGCCAGT
As for B1, in the series with BcMCM wild type [4], the binding result is reported as “binds”.

B2: template-primer, 5'-end oligo (mixed)
DNA 1: ACTGGCCGTCGTTTTACAACGTCGTGACTGGGAAAACCCTGGCGTTACCCAACTTAATCG
DNA 2: GTTGTAAAACGACGGCCAGT
Consider B2, for which, in the series with BcMCM wild type [4], the binding result is given as “binds”.

B3: template-primer, 3'-end oligo (mixed)
DNA 1: ACTGGCCGTCGTTTTACAACGTCGTGACTGGGAAAACCCTGGCGTTACCCAACTTAATCG
DNA 2: CGATTAAGTTGGGTAACGCC
On to B3, for which the binding result in the series with BcMCM wild type [4] is on record as “binds”.

B4: biotin-EcoRI-(dT)50 tailed duplex (mixed)
DNA 1: TCCCCCGAATTCCCCCCTTTTTTTTTTTTTTTTTTTTTTTTTTTTTTTTTTTTTTTTTTTTTTTTTT
DNA 2: GGGGGGAATTCGGGGG
modifications: 5' biotin on strand 1
Consider B4, for which the binding result in the series with BcMCM wild type [5] is recorded as “binds”.
